B1: 180A 3D3: anti-naltrexone monoclonal antibody generated using naltrexone-3-Val-mcKLH; heavy chain SEQ ID NO:21, light chain SEQ ID NO:25 (antibody)
heavy: MYLGLNCVFIVFLLKGVQSEVNLEESGGGLVQPGGSMKLSCVASGFTFSNYWMNWVRQSPERGLEWVAEISLKSYNYATHYAESVKGRFTISGDESKNSVYLQMNNLRAEDTGIYFCTRGDSYALDYGQRTLVTVSS
light: MEFQTQVLMSLLLCMSGACADIVMTQSPTFLAVTVSKKVTISCTASESLYSSKHKVHYLAWYQKKPEQSPKLLIYGASNRYIGVPDRFTGSGSGTDFTLTISSVQVEDLTHYYCAQFYSYPYTFGGGKLEIK
modifications: Amino Acid sequence of heavy chain of monoclonal antibody 180A 3D3; Amino Acid sequence of light chain of monoclonal antibody 180A 3D3
B2: 179B 10A7: anti-naloxone monoclonal antibody generated using naloxone-3-Val-mcKLH; heavy chain SEQ ID NO:201, light chain SEQ ID NO:205 (antibody, V domains shown)
VH: MGWSWIFLFLLSGTAGVHCQIQLQQSGPELVKPGASVKISCKASDYSFTKSYINWVKQRPGQGLEWIGWIYPGSANIKYNEKFRDKATLTVDTSSNTAYIQLSSLTSEDSAVYFCEMGTHYTYDVMDWGQGTSVTVSS
VL: MEFQTQVFVFVLLWLSGVDGDIVMTPSQKFMSTSVGDRVSITCKASQNVRTSVGWYQQKPGQSPKPLIYAASNRHTGVPDRFTGSGSGTDFSLTITNVQSEDQADYFCLQHWNYPWTFGGGTKLEIK
modifications: Amino acid sequence of heavy chain of monoclonal antibody 179B 10A7; Amino acid sequence of light chain of monoclonal antibody 179B 10A7
B3: 179B 9E7: anti-naloxone monoclonal antibody generated using naloxone-3-Val-mcKLH; heavy chain SEQ ID NO:241, light chain SEQ ID NO:245 (antibody)
heavy: MYLGLNCVIIVFLLKGVQSEMKLEESGGGLVQPGGSMKLSCTASGFTFSDAWMDWVRQSPEKGLEWVAEIRNKAYNHATYYAESVRGRFTISRDDSKSKMFLEMNSLRPEDTGIYYCIGGIWTDFDYGQGTTLTVSS
light: MESQTQVFVYMLLWLSGVDGDIVMTQSQKFMSTSVGDRVSVTCKASQNVGINVAWYQQKSGQPPKALIYSASSRYSGVPDRFTGSGSGTDFTLTISNVQSEDLAEYFCHQYNNYPLTFGAGTKLDLK
modifications: Amino acid sequence of heavy chain of monoclonal antibody 179B 9E7; Amino acid sequence of light chain of monoclonal antibody 179B 9E7

Legend:
[1] = inhibition ELISA, anti-naltrexone monoclonal antibodies against key opioids (FIG. 8); type: binding; details: free drug 20 μg/mL, plates coated with ovalbumin conjugate
Excerpt: (§1) Mice with good anti-drug antibody titers and binding to free drug in the ELISA inhibition assays were selected to proceed with generation of monoclonal antibodies, in a similar manner to that described in U.S. Pat. No. 9,815,907 (issued to Sharma et al. on Nov. 14, 2017). In particular, mice with highest titers and best specificity were boosted three days prior to fusion. On the day of fusion, spleen cells were harvested from these mice and were fused with myeloma cell line P3X63Ag8.653 using PEG-assisted fusion protocols. After about ten days, hybridoma supernatants were screened for anti-naloxone and anti-naltrexone antibodies using a plate ELISA (direct binding and inhibition ELISA for specificity). Positive clones were further expanded and sub-cloned, and supernatants were purified using a Protein A SEPHAROSE® (GE Healthcare, Chicago, IL) column. Purified antibody samples were tested using ELISA for binding to the immunogen (i.e., a conjugate of drug-carrier protein) and to free opioids.
(§2) Antibody solution (Immune mouse bleeds or hybridoma clones supernatant or purified antibody) was screened using an inhibition ELISA procedure according to the following protocol. […] Plate coating was performed for 1 hour or more at room temperature or overnight at about 2° C. to 8° C. The plates were then flicked dry and blocked with 200 μL per well of blocking buffer solution (0.5% Casein solution in PBS containing 0.05% TWEEN® 20 surfactant (Croda International PLC, Snaith, United Kingdom). Plate blocking was performed by incubation for 30 minutes or more at room temperature with plate shaking. The plates were washed using a plate washer (BioTek®, Winooski, VT) with plate stacker with the washing buffer being MILLIQ® water (Millipore Corporation, Billerica, MA) containing 0.05% TWEEN® 20. The monoclonal antibody to be screened was then added to each well along with free drug as follows: 25 μL per well of appropriately diluted culture supernatant (or antibody solution) and added 25 μL of 20 μg/mL of free drug. Incubation was performed for about 1 hour at room temperature with plate shaking. The plate was washed. An enzyme conjugate (goat anti-mouse IgG coupled to HRP diluted in blocking buffer diluted to 1:3000) was added at 50 μL per well. Incubation was performed for about 1 hour at room temperature with shaking. The plate was then washed, and a chromogenic solution (TMB from Moss Substrates, Pasadena MD) was added at a volume of 100 μL per well. If a desired antibody was present in the hybridoma supernatant, then a decrease in optical density was observed compared to the well containing no free drug. The plates were read at 650 nm wavelength using an ELISA plate reader (Molecular Devices, San Jose, CA). Note: appropriate dilution of antibody solution was determined by performing a titration ELISA. The antibody dilution was chosen where around 1.0 optical density was observed.

[2] = opiate enzyme multiplied immunoassay with antibody blocker (FIG. 11, FIG. 12); details: cutoff 300 ng/mL; FIG. 11 and FIG. 12
[3] = inhibition ELISA, anti-naloxone monoclonal antibodies against key opioids (FIG. 7); type: binding; details: free drug 20 μg/mL, plates coated with ovalbumin conjugate
Excerpt: as §1, §2

Molecule	specificity for naltrexone over the other key opioids tested in the inhibition ELISA assay [1]	change of naloxone/naltrexone cross reactivity response in the presence of the antibody blocker [2]	specificity for naloxone over the other key opioids tested in the inhibition ELISA assay [3]
B1	good specificity for naltrexone	cross reactivity of naloxone and naltrexone changes from a positive to a negative response to the cutoff	
B2			good specificity for naloxone
B3			good specificity for naloxone

Source: patent publication US12404346B2, “Anti-naloxone and anti-naltrexone monoclonal antibodies and methods of production and use thereof” (Siemens Healthcare Diagnostics Inc., priority 2019, dated 2025)
